In patent US20190041401A1, “Methods of Treating Subjects having Severe and/or Persistent Asthma” (National Jewish Health, priority 2015, published 2019):

Tests used:
MEK^low population = test: Sensitivity of MEK^low CD4 population to dexamethasone-induced cell death; type: cell-based, human; details: BAL CD4 T cells, MEK^low (MFI 10)
Description: FIGS. 5A-5H show the preferential expression of dual-positive TH2/TH17 cells in the BAL MEK^high CD4 T-cell population. FIGS. 5A and 5B, show the sensitivity of MEK^high and MEK^low CD4 populations to dexamethasone-induced cell death. Data are presented as percentages and absolute cell counts (in parentheses) per boxed area. […] FIGS. 5E and 5F show expression of dual-positive TH2/TH17 cells in MEK^high and MEK^low BAL CD4 T-cell populations. FIGS. 5G and 5H show the comparison of expression of dual-positive IL-4/IL-17 (FIG. 5G) and pSTAT3/pSTAT6 (FIG. 5H) cells in MEK^high and MEK^low cell populations.
Patients were allowed to continue their routine medication. Bronchoscopy and BAL were performed, as described previously (Good J T Jr, et al. Refractory asthma: importance of bronchoscopy to identify phenotypes and direct therapy. Chest 2012; 141:599-606). BAL fluid was processed immediately. Cells were isolated by means of centrifugation. Supernatant fluid was placed into aliquots in small samples and frozen. Cells were either cultured or fixed immediately in 4% paraformaldehyde and processed for flow cytometry. […]
Cells were stained with the following antibodies. […] This was detected with an Alexa Fluor 488-labeled anti-rabbit secondary antibody. […] Flow cytometric data were analyzed with FlowJo software (Tree Star, Ashland, Ore). […]

[1] = tested on: human lung epithelial cell line A549; test: IL-33 mRNA induction in A549 cells (real-time PCR); type: cell-based; details: cytokine treatment for 72 hours, normalized to GAPDH
Protocol: (§1) FIGS. 18A-18J show the role of IL-33 in the persistence of asthma. FIG. 18A, A549 cells were cultured in medium alone or with IL-33 ([…]), IL-1b (2 ng/mL), IL-4 (10 ng/mL), IL-13 (20 ng/mL), IL-17 (10 ng/mL), TNF (2 ng/mL), IFN-γ (10 ng/mL), or IFN-γ plus TNF (same concentrations) for 72 hours, and then mRNA was analyzed for IL-33 normalized to glyceraldehyde-3-phosphate dehydrogenase (GAPDH). *P<0.05 and **P<0.01. There were 4 to 8 mice per group. FIGS. 18B-18E show the direct effect of IL-33 on airway hyperreactivity, lung ILCs, and autoinduction. […] IN, Intranasal. […] The change in RL with the 25-mg dose of methacholine is shown (n=5 per group). *P<0.05.
Immediately after flexiVent analysis, lung sections were collected in RIPA buffer (50 mmol/L Tris [pH 7.4], 150 mmol/L NaCl, 1 mmol/L EDTA, 1 mmol/L NaF, 1 mmol/L Na3VO4, and 0.1 mmol/L phenylmethylsulfonyl fluoride) containing protease and phosphatase inhibitors and homogenized. Lysed samples were subjected to 10% SDS-PAGE, transferred to a polyvinylidene difluoride membrane, and then immunoblotted with primary antibodies (IL-33 [R&D Systems], tubulin [H-235], and b-actin [Santa Cruz Biotechnology, Dallas, Tex]). After washing, the membranes were incubated with a horseradish peroxidase-conjugated secondary antibody. After additional washing, the membranes were developed with ECL reagent, as previously described (Gorska et al. 2007). A549 cell culture A549 cells were cultured in RPMI in 10% FBS (HyClone; Thermo Scientific, Waltham, Mass.) and 1% penicillin/streptomycin (Gibco, Carlsbad, Calif.) and maintained at 378C in a humidified 5% CO2 incubator. All cytokines were purchased from PeproTech (Rocky Hill, N.J.). In one experiment cells were treated with medium, IL-1b (2 ng/mL), IL-4 (10 ng/mL), IL-13 (20 ng/mL), IL-17 (10 ng/mL), IL-33 (20 ng/mL), TNF (2 ng/mL), IFN-g (10 ng/mL), and TNF (2 ng/mL) plus IFN-g (10 ng/mL) for 72 hours. Cellular RNA was analyzed for mRNA for IL-33 and IL-33R. In a second experiment cells were pretreated for 24 hours with medium, IL-1b (2 ng/mL), IL-4 (10 ng/mL), IL-13 (20 ng/mL), IL-17 (10 ng/mL), TNF (2 ng/mL), or IFN-g (10 ng/mL) before stimulation for 72 hours with IL-33 (20 ng/mL). Cellular RNAwas analyzed for mRNA for IL-33. In a third experiment cells were treated for 24 hours with DRA (5 μg/mL dust mite, 15 μg/mL ragweed, and 5 μg/mL Aspergillus species). Cellular RNA was analyzed for mRNA for IL-33. In a fourth experiment cells were treated for 24 hours with IL-13 (20 ng/mL) and ATP, and the supernatant was collected and analyzed for IL-33 levels by means of ELISA, according to the manufacturer's instructions (R&D systems). […]

A549 cells [2] = test: Cytokine induction of IL-33R mRNA in A549 cells; type: cell-based, human; details: cytokine treatment for 72 hours
Protocol: as §1
(§2) Immediately after flexiVent analysis, lung sections were collected in RIPA buffer (50 mmol/L Tris [pH 7.4], 150 mmol/L NaCl, 1 mmol/L EDTA, 1 mmol/L NaF, 1 mmol/L Na3VO4, and 0.1 mmol/L phenylmethylsulfonyl fluoride) containing protease and phosphatase inhibitors and homogenized. […] Cellular RNA was analyzed for mRNA for IL-33 and IL-33R. […] Cellular RNAwas analyzed for mRNA for IL-33. […] Cellular RNA was analyzed for mRNA for IL-33. In a fourth experiment cells were treated for 24 hours with IL-13 (20 ng/mL) and ATP, and the supernatant was collected and analyzed for IL-33 levels by means of ELISA, according to the manufacturer's instructions (R&D systems). […]

A549 cells [3] = test: IL-33 autoinduction in A549 cells after cytokine pretreatment; type: cell-based, human; details: pretreated 24 hours with cytokine, then 72 hours with IL-33 (20 ng/mL)
Protocol: as §1, §2

C57Bl/6 mice = test: Intranasal IL-33 administration, outcomes after 15 days; type: in vivo, mouse
Protocol: as §1
FIG. 27A, Effect of IL-13 on IL-33 secretion. A549 cells were treated overnight with medium or IL-13 (20 ng/mL) and ATP ([…]), and the released IL-33 was measured by using ELISA (n=6). *P=0.04. FIGS. 27B-27E, Direct effect of IL-33 on airway hyperreactivity and lung ILCs. C57Bl/6 mice were treated intranasally for 3 consecutive days with 400 ng per dose of IL-33. Outcome measures were evaluated 15 days after final exposure.
Measurement methodologies have been explained in depth in Goplen et al. (Goplen N, et al. Combined sensitization of mice to extracts of dust mite, ragweed, and Aspergillus species breaks through tolerance and establishes chronic features of asthma. J Allergy Clin Immunol 2009; 123:925-32.e11). Briefly, mice were anesthetized with ketamine (180 mg/kg), xylazine (9 mg/kg), and acepromazine (4 mg/kg). After loss of footpad pinch reflex, a tracheotomy was performed, and the mouse was attached with an 18-gauge cannula to a small-animal ventilator with a computer-controlled piston (FlexiVent; SCIREQ, Montreal, Quebec, Canada). Mice were ventilated at a frequency of 90 breaths/min with a tidal volume of 20 mL/kg during nebulization and otherwise with a frequency of 150 breaths/min with a tidal volume of 20 mL/kg while breathing against an artificial positive endexpiratory pressure of 2.5 to 3 cm H2O. Lungs were inflated to total lung capacity twice to standardize volume history. Resistance measurements were then taken to establish baselines for total lung resistance and at each methacholine dose. Group averages were expressed as fold increases in baseline resistance (means+SEMs).
Inflammation was quantified by using Metamorph image acquisition and analysis software on H&E-stained lung sections at 20× magnification, as described in Goplen et al. 2009. Airway epithelial hypertrophy and peribronchial smoothmuscle hypertrophyweremeasured as the area of epithelial or smoothmuscle per circumference of airway basement membrane. Airway inflammation was measured as the area of inflammatory infiltrates as a percentage of the total field. A minimum of 5 airways per mouse and 5 to 9 mice per group were quantified. Images were acquired on a Nikon Eclipse TE2000-U microscope by using 320 dry lenses at room temperature through a Diagnostics Instruments camera model #4.2 with Spot software 5.0 (Diagnostic Instruments, Inc, Sterling Heights, Mich.). H&E sections were mounted with Permount medium (Thermo Fisher Scientific, Inc, Waltham, Mass.). Images were adjusted for brightness and contrast to improve viewing.
Lungs were perfused with saline, and single-cell suspensions of lung cells were acquired by using mechanical mincing of lungs followed by digestion at 37° C. for 45 minutes in RPMI with 10% FBS, 1% penicillin/streptomycin, and collagenaseA (1 mg/mL). Cell suspensions were agitated at room temperature for 10 minutes in RPMI with 100 U/mL DNAse I before filtration through 40-mm filters and red blood cell lysis. Single-cell suspensions were subsequently fixed in 4% paraformaldehyde for flow cytometric analysis.
Mouse ILC2s. For mouse flow cytometric staining, all conjugate antibodies were purchased from BioLegend (San Diego, Calif.), unless otherwise stated. Mouse lung digest cells were fixed with 4% paraformaldehyde and incubated with 10% donkey serum and 1% 2.4G2. […]

[4] = intranasal, 400 ng per dose for 3 days, 15 days after
[5] = intranasal, 3 consecutive days, 400 ng per dose, 15 days after

## C[C@@H]1C[C@H]2[C@@H]3CCC4=CC(=O)C=C[C@]4(C)[C@@]3(F)[C@@H](O)C[C@]2(C)[C@@]1(O)C(=O)CO [Dexamethasone, dexamethasone]
MEK^low population
  cell count decrease after dexamethasone treatment, MEK^low CD4 T cells: 2.7 fold

## IL-17: cytokine purchased from PeproTech, 10 ng/mL on A549 cells
[1]
  induction of IL-33 mRNA: directly induced IL-33

## IL-113: probably IL-1b cytokine (PeproTech, 2 ng/mL on A549 cells), misprinted
A549 cells [2]
  induction of IL-33R mRNA: strong inducer of IL-33R
A549 cells [3]
  IL-33 autoinduction after preincubation with cytokine: unable to facilitate IL-33 autoinduction

B1: IL-4: cytokine purchased from PeproTech, 10 ng/mL on A549 cells (protein, UniProt P05112 25-153, looked up)
Interleukin-4: HKCDITLQEIIKTLNSLTEQKTLCTELTVTDIFAASKNTTEKETFCRAATVLRQFYSHHEKDTRCLGATAQQFHRHKQLIRFLKRLDRNLWGLAGLNSCPVKEANQSTLENFLERLKTIMREKYSKCSS
[1]
  induction of IL-33 mRNA: directly induced IL-33

B2: IL-33: interleukin-33 cytokine, given intranasally to mice or added to A549 cells (protein, UniProt Q8BVZ5 1-266, looked up)
Interleukin-33: MRPRMKYSNSKISPAKFSSTAGEALVPPCKIRRSQQKTKEFCHVYCMRLRSGLTIRKETSYFRKEPTKRYSLKSGTKHEENFSAYPRDSRKRSLLGSIQAFAASVDTLSIQGTSLLTQSPASLSTYNDQSVSFVLENGCYVINVDDSGKDQEQDQVLLRYYESPCPASQSGDGVDGKKLMVNMSPIKDTDIWLHANDKDYSVELQRGDVSPPEQAFFVLHKKSSDFVSFECKNLPGTYIGVKDNQLALVEEKDESCNNIMFKLSKI
C57Bl/6 mice; after intranasal IL-33, 400 ng per dose for 3 days
  persistence of airway hyperreactivity and airway inflammation: 2 weeks
C57Bl/6 mice; [4]
  IL-51 ILC2 numbers: increased
  number of lung IL-131 ILC2s: increased
  total number of IL-51 and IL-131 lung cells: increased
C57Bl/6 mice; [5]
  airway hyperreactivity: induced airway hyperreactivity
  airway inflammation: mild airway inflammation
C57Bl/6 mice; pro-surfactant protein C-positive epithelial cells and CD11b+ hematopoietic cells, 2 weeks after intranasal IL-33
  IL-33 production (autoinduction) in lung cells: persistent IL-33 production was observed
[1]
  induction of IL-33 mRNA: capable of autoinduction
